2 variants from IntAct's records for PubMed 24485452 can be followed below.

The labels stand for the following.
B1: Golgi phosphoprotein 3 (Homo sapiens), Q9H4A6 (parent)
chain: MTSLTQRSSGLVQRRTEASRNAADKERAAGGGAGSSEDDAQSRRDEQDDDDKGDSKETRLTLMEEVLLLGLKDREGYTSFWNDCISSGLRGCMLIELALRGRLQLEACGMRRKSLLTRKVICKSDAPTGDVLLDEALKHVKETQPPETVQNWIELLSGETWNPLKLHYQLRNVRERLAKNLVEKGVLTTEKQNFLLFDMTTHPLTNNNIKQRLIKKVQEAVLDKWVNDPHRMDRRLLALIYLAHASDVLENAFAPLLDEQYDLATKRVRQLLDLDPEVECLKANTNEVLWAVVAAFTK

This experiment covers variants of B1. As to conditions: with my18a_human MYO18A.
As to T143D;T148D, the “effect of a mutation on the interaction” value was “increasing interaction strength”.
In the case of T143E;T148E, the “effect of a mutation on the interaction” value is “increasing interaction strength”.
